# Source: US7115556B2, “Use of anti-prolactin agents to treat proliferative conditions” (Greenville Hospital System, priority 1998, dated 2006)
# B1: hPRL-G129R: variant of human prolactin having a substitution of the glycine at position 129 with an arginine residue; prolactin receptor antagonist (protein)
# chain: LPICPGGAARCQVTLRDLFDRAVVLSHYIHNLSSEMFSEFDKRYTHGRGFITKAINSCHTSSLATPEDKEQAQQMNQKDFLSLIVSILRSWNEPLYHLVTEVRGMQEAPEAILSKAVEIEEQTKRLLERMELIVSQVHPETKENEIYPVWSGLPSLQMADEESRLSAYYNLLHCLRRDSHKIDNYLKLLKCRIIHNNNC
# Key:
# MCF-7 cells = assay: TUNEL assay, MCF-7; format: cell-based, human; settings: 250 ng G129R, 24 hours
# Procedure: (§1) Cell Culture. T-47D cells obtained from ATCC were grown in RPMI 1640 (phenol red free), supplemented with 10% FBS (GIBCO BRL). BT-474 cells were grown in RPMI 1640 medium (phenol red free) supplemented with 10% FBS and ATCC recommended supplements. MCF-7 cells were grown in DMEM medium (phenol red free), supplemented with 10% FBS. The cells were grown at 37° C. in a humid atmosphere in the presence of 5% CO2. The MDA-MB-134 cells were grown in Leibovitz's L-15 medium supplemented with 20% FBS and grown in CO2 free atmosphere. The breast cancer cells were trypsinized (0.02% Trypsin—EDTA) and grown in their respective media (phenol red free) supplemented with 10% CSS (Charcoal stripped serum) for a week. Subsequently the cells were trypsinized again and plated onto an 8 chambered slide system (Lab Tek II) at a confluence of 60–70% per chamber. The next day treatments were performed on the breast cancer cells using their respective media(phenol red free), supplemented with 1% CSS. The MDA-MB-134 VI cells were grown in phenol red containing medium, but with the same serum conditions as the other breast cancer cells.
# Terminal deoxynucleotidly transferase mediated dUTP nick end labeling (TUNEL) assay. Nicks of the fragmented DNA are labeled at their 3-OH ends. The fluorescein-labeled dUTP is incorporated at the 3-OH ends by using the enzyme terminal deoxynucleotidyl transferase. […]
# [1] = system: tyrosine phosphorylation of STAT5 protein in T-47D human breast cancer cells; assay: hPRL induction of tyrosine phosphorylation of STAT5 protein (Example 8); format: cell-based
# Excerpt: Assay of hPRL induction of tyrosine phosphorylation of STAT5 protein. […] Tyrosyl phosphorylation of STAT 5 is a receptor mediated event and is thought to be an important step in ligand-induced signal transduction (Wakao et al., 1994, EMBO J. 13: 2182–2191; Kazansky et al., 1995, Mol. Endocrinol. 9:1598–1609; Waxman et al., 1995, J. Biol. Chem. 270:13262–13270). This assay was used to evaluate the ability of hPRL and hPRLA to inhibit induction of STAT 5 phosphorylation by wild type PRL.
# Briefly, human breast cancer cells were plated in 12-well plates. After pre-incubation in serum-free DMEM for 2–3 hours, the cells were exposed to various concentration of hPRL and hPRLA in serum-free DMEM. The cells were incubated for 15 min at 37° C., washed once with PBS, and lysed in 300 μl lysis buffer (50 mM Tris-HCl, pH 6.8, 1% SDS, 1% β-mecaptoethanol, 0.1M DTT, 5% Sucrose, 100 uM Sodium Orthovanadate, and 0.6% bromphenol blue). Thirty microliters of cell lysates were subjected to 4–12.5% SDS-PAGE and immunoblot analysis using horse radish peroxidase (HRP)-conjugated anti-phosphotyrosine antibody PY20 and ECL reagent kit (Amersham, Ill.). Blots were then exposed to X-ray films and developed using standard procedures (Kodak, Rochester, N.Y.). This assay has been described in Chen et al., 1994, J. Biol. Chem. 269: 15892–15897; Chen et al., 1995, Endocrinol. 136:660–667; Wang et al., 1994, Proc. Natl. Acad. Sci. U.S.A. 91:1391–1395; Chen et al., 1995, Mol. Endocrinol. 9(3):292–302; Harding et al., 1996, J. Biol. Chem. 271(12):6708–6712.
# prostate cancer cells = assay: TUNEL assay, prostate cancer cells; format: cell-based, human; settings: 250 ng hPRL-G129R, 24 hours
# Procedure: (§2) Terminal deoxynucleotidly transferase mediated dUTP nick end labeling (TUNEL) assay. Nicks of the fragmented DNA are labeled at their 3-OH ends. The fluorescein-labeled dUTP is incorporated at the 3-OH ends by using the enzyme terminal deoxynucleotidyl transferase. After the assigned period of treatment the chambers were dismantled as per the manufacturer's instructions and the TUNEL assay (Apoptosis detection system, Fluorescein- Promega) was performed as per the manufacturer's instructions. The slide was examined under a FITC filter using an Olympus IX 70 microscope system.
# The samples were in duplicate and each sample constituted about 2 million cells
# [2] = system: T-47D human breast cancer cells; assay: TUNEL assay, T-47D; format: cell-based
# Procedure: as §1, §2
molecule,measurement,setting,value
B1,induction of apoptosis DNA fragmentation,MCF-7 cells,induced apoptosis
same,induction of phosphorylation of STAT5 proteins,"[1]; T-47D cells, 5 nM of hormone alone, Western blot FIG. 3",absent
same,hPRL-induced phosphorylation of STAT5 proteins in presence of hPRLA,[1]; equal amounts: 5 nM hPRL and 5 nM hPRLA (lane 4),partially eliminated
same,hPRL-induced phosphorylation of STAT5 proteins in presence of hPRLA,[1]; excess of hPRLA: 5 nM hPRL and 25 nM hPRLA (lane 5),undetectable
same,apoptosis of two prostate cancer cells,prostate cancer cells,underwent apoptosis
same,DNA fragmentation after 2 hours of treatment,"[2]; 50 ng/ml, 2 hours",apparent
same,apoptosis at physiological concentration,"[2]; 50 ng/ml, 24 h",apoptosis occurs
same,induction of apoptosis DNA fragmentation,"[2]; 250 ng G129R, 24 hours",induced apoptosis
same,competition between G129R and hPRL on DNA fragmentation,[2]; 1:1 ratio (125 ng/ml each),able to compete with hPRL
same,"apoptosis (DNA fragmentation), dose response",[2]; 24 h treatment,induced apoptosis in a dose dependent manner
